# B1: 11B7: antagonistic rat anti-AXL monoclonal antibody, rat IgG1 (antibody, V domains shown)
# VL: DIQMTQAPSSLPASLGDRVTITCRASQDIGNYLRWFQQKPGKSPRLMISGATNLAAGVPSRFSGSRSGSDYSLTISSLESEDMADYYCLQSKESPWTFGGGTKLELK
# VH: EVQLQESGPGLVKPSQSLSLTCSVTGYSITSNYWGWIRKFPGDKMEWMGYITYSGSTSYNPSLKSRISITRDTSKNQFFLQLNSVTSEDTATYYCAITTFYYWGQGVMVTVSS
# How the values were obtained:
# C-8161 melanoma cells = test: Soft agar colony formation assay, combination with cisplatin; assay type: cell-based, human
# Experimental: Soft agar assays were conducted in order to investigate the ability of anti-Axl antibodies of the invention to inhibit anchorage-independent cell growth either alone or in combination with chemotherapeutic agents. The soft agar colony formation assay is a standard in vitro assay to test for transformed cells, as only transformed cells are able to grow in soft agar.
# In brief, 750 C-8161 melanoma cells either remained untreated or were pre-incubated with the antagonistic rat anti-Axl antibody 11B7 at 15 μg/ml in IMDM medium (Gibco) for 30 min at 37° C. Subsequently, cells were combined with Difco noble agar solution resulting in 50 μl of top agar cell suspension at concentrations of Agar, FCS, and 11B7 of 0.35%, 0.2%, and 7.5 μg/ml, respectively. This cell suspension was plated on top of 50 μl of a 0.7% agarose bottom layer containing 20% FCS, and was finally covered with another 50 μl of a feeding layer solution that contains 0.2% FCS as well as cisplatin in according concentrations. In the whole of 150 μl per sample, the final concentrations of 11B7 and cisplatin were 2.5 μg/ml and 1.5 μM, 1.0 μM, 0.75 μM, 0.5 μM, or 0.25 μM, respectively. Colonies were allowed to form for 5 days and were then stained with 50 μl MTT (Sigma, 1 mg/ml in PBS) for 3 hours at 37° C. Using a Scanalyzer HTS camera system in conjunction with the HTS Bonit colony formation software (Lemnatec, Wuerselen), the effect of the antagonistic rat anti-Axl antibody 11B7 in the absence or presence of cisplatin were analyzed in triplicates.
# AXL = molecular target: T1, AXL (Homo sapiens, UniProt P30530); test: Axl phosphorylation ELISA, rat versus chimeric antibody; assay type: cell-based; parameters: endogenous in cells; host or cells: CaSki cervical cancer cells
# T1 sequence (P30530 26-894): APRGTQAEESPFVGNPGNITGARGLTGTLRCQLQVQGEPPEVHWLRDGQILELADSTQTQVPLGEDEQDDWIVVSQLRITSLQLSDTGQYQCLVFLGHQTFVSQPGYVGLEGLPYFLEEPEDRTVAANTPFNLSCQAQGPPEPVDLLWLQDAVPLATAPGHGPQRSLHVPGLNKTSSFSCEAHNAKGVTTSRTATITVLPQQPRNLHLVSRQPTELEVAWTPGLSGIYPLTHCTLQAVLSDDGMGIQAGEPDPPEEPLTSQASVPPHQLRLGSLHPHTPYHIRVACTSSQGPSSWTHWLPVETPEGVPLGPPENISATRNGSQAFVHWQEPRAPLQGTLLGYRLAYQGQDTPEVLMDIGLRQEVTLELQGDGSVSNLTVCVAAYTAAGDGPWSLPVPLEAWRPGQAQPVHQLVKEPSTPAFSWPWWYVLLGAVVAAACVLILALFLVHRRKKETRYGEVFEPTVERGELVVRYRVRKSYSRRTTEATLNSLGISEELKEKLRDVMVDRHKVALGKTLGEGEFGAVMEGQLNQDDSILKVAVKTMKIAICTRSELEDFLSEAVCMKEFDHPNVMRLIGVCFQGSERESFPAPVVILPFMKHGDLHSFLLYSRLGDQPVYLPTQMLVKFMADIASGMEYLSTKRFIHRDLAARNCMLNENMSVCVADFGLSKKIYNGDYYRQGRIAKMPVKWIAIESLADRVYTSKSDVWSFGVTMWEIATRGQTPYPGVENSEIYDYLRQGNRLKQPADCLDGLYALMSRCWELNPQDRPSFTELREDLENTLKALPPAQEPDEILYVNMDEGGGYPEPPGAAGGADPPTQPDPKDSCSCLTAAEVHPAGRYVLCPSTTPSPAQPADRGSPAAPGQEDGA
# Experimental: In order to investigate whether the rat anti-Axl antibodies of the invention and the corresponding chimeric anti-Axl antibodies of the invention were able to inhibit ligand Gas6-mediated Axl activation in vitro to similar extent, ELISA experiments on CaSki cervical cancer cells were performed. Gas6-mediated Axl activation was thereby detected by increased receptor tyrosine phosphorylation. In brief, on day 1, 3×10^4 cells per well were seeded in normal growth medium in flat-bottom 96 well plates. The next day, growth medium was replaced by serum-free medium to starve cells over night for 24 h. Also over night, black Maxi-Sorp 96 well plates (Nunc) were coated with mouse anti-phospho-tyrosine antibody 4G10 at 2 μg/ml PBS and 4° C. On day 3, the 4G10 antibody solution was removed and Maxi-Sorp wells were blocked with PBS, 0.5% BSA for at lest 4 h at room temperature. In parallel, cells were pre-incubated with 50 ng/ml, 100 ng/ml, 300 ng/ml, 750 ng/ml, 1 μg/ml, and 10 μg/ml of rat anti-Axl antibody 11B7 or chimeric anti-Axl antibody ch11B7 for 1 h at 37° C. and subsequently treated with or without 400 ng/ml Gas6 (R&D Systems) for 10 min at 37° C. […] Using a Victor plate reader (Perkin Elmer), the fluorescence of each well was collected at an excitation wavelength of 430 nm and an emission wavelength of 580 nm.
molecule,measurement,setting,value
B1,"soft agar colony growth, combination with cisplatin","C-8161 melanoma cells; 2.5 μg/ml 11B7 + 0.25 to 1.5 μM cisplatin, 5 days",significantly potentiated inhibitory effect of cisplatin
same,"inhibitory effect on soft agar colony growth, antibody alone","C-8161 melanoma cells; 2.5 μg/ml 11B7, 5 days, overall area of colonies",~30%
same,"ligand-induced Axl activation (relative Axl phosphorylation), concentration-dependent","AXL; 50 ng/ml to 10 μg/ml antibody, 400 ng/ml Gas6, CaSki cervical cancer cells",able to block ligand-induced activation of the receptor tyrosine kinase Axl to similar extent
same,ligand-induced Axl activation in melanoma cell line C-8161,"AXL; same experimental settings, C-8161",Comparable effects

# — US8933202B2, “AXL antibodies” (U3 Pharma GmbH, priority 2007, dated 2015)
